# In US20180346569A1 (LYVGEN BIOPHARMA, published 2018):
# B1: SSI-361 (humanized SHB-617 in human IgG4 S228P/kappa) (antibody, V domains shown)
# VH: QVTLKESGPALVKPTQTLTLTCTFSGFSLSTSGTCVSWIRQPPGKALEWLATICWEDSKGYNPSLKSRLTISKDTSKNQAVLTMTNMDPVDTATYYCARREDSGYFWFPYWGQGTLVTVSS
# VL: NIQMTQSPSSLSASVGDRVTITCKAGQNVNNYLAWYQQKPGKAPKVLIFNANSLQTGVPSRFSGSGSGTDFTLTISSLQPEDFATYYCQQYNSWTTFGGGTKVEIKR
# notes: Full human IgG4 (hinge S228P, EU numbering)/kappa, expressed in HEK293 or CHO cells; also called PD-1 Ab01
# Experiments:
# [1] = target: T1, Human PD-1 (captured on an anti-His IgG Biacore chip) (human, UniProt Q15116 25-167); assay: SPR (Biacore), human PD-1 captured on anti-His IgG chip, SSI-361 injected at 3.125-50 nM, 1:1 model
# T1 construct: It may be the same Sino Biological PD-1-His protein as m3; also called PD-1 antigen; not shown: His tag implied by capture on anti-His IgG
# T1 sequence (Q15116 25-167): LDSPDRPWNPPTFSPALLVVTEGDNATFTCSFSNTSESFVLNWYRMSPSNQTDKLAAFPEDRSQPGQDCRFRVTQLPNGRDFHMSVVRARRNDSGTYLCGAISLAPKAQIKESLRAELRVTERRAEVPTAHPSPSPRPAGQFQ
# Description: Flow cells of a Series S CMS sensor chip (GE Healthcare Life Sciences) were activated with freshly mixed 50 mmol/L NHS and 200 mmol/L EDC for 360 seconds (10 μL/min). Then, anti-His IgGs, in 10 mmol/L NaAC (pH 5.0) was injected onto the activated flow cell (10 μL/min) for 300 seconds (10 μL/min) with HBS-EP+(10 mM HEPES, 150 mM NaCl, 3 mM EDTA and 0.05% P20, pH 7.4) as the running buffer. The remaining active coupling sites were blocked with a 420 second injection of 1 mol/L ethanolamine (10 μL/min). This procedure was repeated for 2 times to immobilized protein on 2 flow cells individually. Low flow rate overnight was maintained for the equilibrium of the immobilized proteins. Human PD-1 was captured on a flow cell 2 (10 μL/min). […] Flow cell 1 without captured antigen was used as reference flow cell. To remove the tested antibody and antigen from the surface, 10 mM glycine-HCl pH 1.5 was injected for 60s (10 μL/min, flow cell 1-2). The above procedures were repeated for each concentration of serially diluted tested antibody. The KD value (Table 1) was evaluated using Biacore X100 evaluation software 2.0 with 1:1 interaction binding model. Flow cell 1 was used as reference flow cell for data subtraction.
# [2] = target: T2, rhesus monkey PD-1-His (Sino Biological Inc. Cat#90305-KO8H-100) (rhesus monkey, UniProt B0LAJ2 25-170); assay: ELISA, antibody coated at 1 ug/ml, rhesus monkey PD-1-His titrated (the concentration axis is that of PD-1-His), detected with anti-His-HRP
# T2 construct: Bought protein; also called Rehsus monkey PD-1
# T2 sequence (B0LAJ2 entry or part of it limits assumed): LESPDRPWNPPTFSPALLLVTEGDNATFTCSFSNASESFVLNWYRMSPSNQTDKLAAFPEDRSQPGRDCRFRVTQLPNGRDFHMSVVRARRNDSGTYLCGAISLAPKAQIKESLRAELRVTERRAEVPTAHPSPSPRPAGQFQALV
# Description: (§1) The PD-1 antibody sample was diluted in PBS to 1 ug/ml and was coated in an ELISA plate (Costar, Cat#3590, high binding) 100 ul/well, 4° C. overnight. The plate was decanted and blocking solution (eBioscience, ELISA/ELISPOT Diluent, Cat#00-4202-55) was added 200 ul/well. After 1 hour incubation at room temperature, the plate was washed with PBST three times. […] The plate was incubated 1 hour at room temperature and then washed four times with PBST. Anti-His-HRP (Genscript Cat#A00612) at 1:2000 dilution was added to the plate 100 ul/well. The plate was incubated 1 hour at room temperature followed by washing with PBST four times. The TMB substrate solution was added 100 ul/well. Let the color develop for 15 minutes and add 50 ul/well 1M H2SO4 to terminate the reaction. Absorbance at 450 nm was determined in FlexStation 3 ELISA reader.
# [3] = target: T3, Cyno PD-1-Fc tag (Sino Biological Inc. Cat#90311-CO2H) (cynomolgus monkey, UniProt B0LAJ3 25-170); assay: ELISA, Cyno PD-1-Fc coated at 2 ug/ml, antibody titrated, detected with anti-human Ig kappa-HRP
# T3 construct: Bought Fc fusion; also called PD-1 of cynomolgus monkey; Cynomolgus monkey PD-1
# T3 sequence (B0LAJ3 entry or part of it limits assumed): as the sequence (B0LAJ2 entry or part of it limits assumed) above, with P10A, R67Q, Q75R counted along it
# Description: To determine binding to PD-1 of cynomolgus monkey, Cyno PD-1—Fc tag (Sino Biological Inc. Cat#90311-CO2H) was diluted in PBS to 2 ug/ml, and 100 ul/well was used to coat an ELISA plate (Costar, Cat#3590, high binding), 4° C. overnight. The plate was decanted and blocking solution (eBioscience, ELISA/ELISPOT Diluent, Cat#00-4202-55) was added, 200 ul/well. After 1 hour incubation at room temperature, the plate was washed with PBST three times. The testing PD-1 antibody was diluted in blocking buffer to 0, 0.001, 0.01, 0.1, 1.10 ug/ml and added to the plate, 100 ul/well. The plate was incubated 1 hour at room temperature and then washed four times with PBST. Anti-Hu IgG-HRP (goat-anti-human Ig kappa-HRP, Millipore, Cat# AP502P) at 1:4000 dilution was added to the plate, 100 ul/well. The plate was incubated 1 hour at room temperature followed by washing with PBST four times. The TMB substrate solution was added 100 ul/well. The color developed for 15 minutes and 50 ul/well of 1M H2SO4 was added to terminate the reaction. Absorbance at 450 nm was determined in FlexStation 3 ELISA reader.
# [4] = target: T2, rhesus monkey PD-1-His (Sino Biological …); assay: ELISA, antibody coated at 1 ug/ml, PD-1-His titrated, detected with anti-His-HRP
# Description: as §1
# [5] = target: T4, Human PD-1-His tag protein (Sino Biological Inc. Cat#10377-H08H-100) (human, UniProt Q15116 25-167); assay: ELISA, antibody coated at 1 ug/ml, PD-1-His titrated, detected with anti-His-HRP; antibody coated on the plate, human PD-1-His titrated
# T4 construct: Bought protein; not shown: His tag
# T4 sequence (Q15116 25-167 limits assumed): as the sequence (Q15116 25-167) above
# Description: as §1
# [6] = target: T4, Human PD-1-His tag protein (Sino …); assay: ELISA, antibody coated at 1 ug/ml, human PD-1-His titrated (the concentration axis is that of PD-1-His), detected with anti-His-HRP
# Description: as §1
binder,measurement,setting,value
B1,Kd,[1],5.07 nM
same,koff,[1],0.00117 s⁻¹
same,kon,[1],230000 M⁻¹ s⁻¹
same,EC50 (read off the curve),[2],~0.05 µg/mL
same,EC50,[3],0.08 nM
same,EC50 (read off the curve),[3],~0.01 µg/mL
same,EC50,[4],0.39 nM
same,EC50,[5],0.33 nM
same,EC50 (read off the curve),[6],~0.03 µg/mL
